{"source": "paper PMC12440737", "about": "(2025)", "target": "T1, IL-6 receptor (Homo sapiens, UniProt P08887)", "T1 chain": "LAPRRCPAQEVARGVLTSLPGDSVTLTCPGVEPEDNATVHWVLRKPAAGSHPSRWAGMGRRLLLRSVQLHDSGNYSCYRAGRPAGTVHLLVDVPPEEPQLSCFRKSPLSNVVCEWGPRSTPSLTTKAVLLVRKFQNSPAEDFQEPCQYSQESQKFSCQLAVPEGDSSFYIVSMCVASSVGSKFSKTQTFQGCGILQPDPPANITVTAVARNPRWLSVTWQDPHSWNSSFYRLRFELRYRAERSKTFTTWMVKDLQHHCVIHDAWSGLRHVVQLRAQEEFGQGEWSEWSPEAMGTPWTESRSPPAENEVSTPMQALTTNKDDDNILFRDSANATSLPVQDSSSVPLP", "experiment": "SPR", "data": [{"binder": "Tocilizumab (antibody, V domains shown) VH: QVQLQESGPGLVRPSQTLSLTCTVSGYSITSDHAWSWVRQPPGRGLEWIGYISYSGITTYNPSLKSRVTMLRDTSKNQFSLRLSSVTAADTAVYYCARSLARTTAMDYWGQGSLVTVSS VL: DIQMTQSPSSLSASVGDRVTITCRASQDISSYLNWYQQKPGKAPKLLIYYTSRLHSGVPSRFSGSGSGTDFTFTISSLQPEDIATYYCQQGNTLPYTFGQGTKVEIK", "values": [{"measurement": "Kd", "value": 9.9, "unit": "nM"}]}]}
